Measurements reported in patent publication US20240228562A1 (Pieris, published 2024).

T1: huWISP-2 (human, UniProt O76076 24-250, limits assumed)
T1 construct: also called human WISP-2 (CCN5)
T1 sequence (looked up): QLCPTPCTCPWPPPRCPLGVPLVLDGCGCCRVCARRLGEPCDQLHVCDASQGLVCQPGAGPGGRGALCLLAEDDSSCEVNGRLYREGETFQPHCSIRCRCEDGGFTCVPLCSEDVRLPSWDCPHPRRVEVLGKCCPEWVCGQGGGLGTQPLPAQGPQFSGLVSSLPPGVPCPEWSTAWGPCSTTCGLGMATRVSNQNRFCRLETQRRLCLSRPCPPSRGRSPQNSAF

T2: huWISP-3 (human, UniProt O95389 24-354, limits assumed)
T2 construct: also called human WISP-3 (CCN6)
T2 sequence (looked up): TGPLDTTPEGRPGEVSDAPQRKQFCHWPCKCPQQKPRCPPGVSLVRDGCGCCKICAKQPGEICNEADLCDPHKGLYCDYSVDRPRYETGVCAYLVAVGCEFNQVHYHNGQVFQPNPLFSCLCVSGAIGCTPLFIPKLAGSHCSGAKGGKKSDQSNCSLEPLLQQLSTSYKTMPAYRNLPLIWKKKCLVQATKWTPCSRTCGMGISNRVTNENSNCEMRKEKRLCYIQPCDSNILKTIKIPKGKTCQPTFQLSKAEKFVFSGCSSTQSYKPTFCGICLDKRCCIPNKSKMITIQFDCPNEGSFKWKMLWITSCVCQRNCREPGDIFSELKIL

T3: recombinant human CTGF protein (R&D Systems, SEQ ID NO: 79) (human, UniProt P29279 27-349)
T3 construct: Bought; also called human CTGF/CNN2; huCTGF
T3 sequence: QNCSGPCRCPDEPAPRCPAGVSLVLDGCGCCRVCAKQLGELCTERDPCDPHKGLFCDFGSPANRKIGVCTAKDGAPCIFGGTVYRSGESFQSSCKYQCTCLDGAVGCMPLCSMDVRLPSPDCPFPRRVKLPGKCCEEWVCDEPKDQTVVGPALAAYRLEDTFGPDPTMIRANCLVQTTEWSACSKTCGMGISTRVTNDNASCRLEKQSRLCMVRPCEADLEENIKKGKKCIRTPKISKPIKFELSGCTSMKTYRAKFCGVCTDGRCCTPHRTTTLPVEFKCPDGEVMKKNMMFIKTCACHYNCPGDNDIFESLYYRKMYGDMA

T4: recombinant rat CTGF protein (R&D Systems) (rat, UniProt Q9R1E9 25-347)
T4 construct: Bought; also called rCTGF
T4 sequence: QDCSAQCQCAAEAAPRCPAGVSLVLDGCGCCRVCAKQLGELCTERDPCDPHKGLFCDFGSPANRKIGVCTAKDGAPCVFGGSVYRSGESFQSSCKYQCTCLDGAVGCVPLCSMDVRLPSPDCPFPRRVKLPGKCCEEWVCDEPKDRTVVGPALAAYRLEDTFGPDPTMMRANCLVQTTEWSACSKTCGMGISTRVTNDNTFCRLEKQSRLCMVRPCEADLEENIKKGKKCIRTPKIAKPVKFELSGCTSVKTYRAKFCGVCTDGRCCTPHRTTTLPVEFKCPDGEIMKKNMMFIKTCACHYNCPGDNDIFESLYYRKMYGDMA


Columns and labels:
huWISP-2 = target: T1, huWISP-2; assay: ELISA, coated CCN protein
In short: (§1)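 Plates coated with each CCN protein at 1 μg/ml overnight at 4 °C, blocked with PBS-T/BSA, then serially diluted muteins from 1000 nM bound 1 h at RT. Detection with HRP anti-NGAL or anti-Strep-Tag and fluorogenic substrate; cross-reactivity judged when the CTGF signal neared saturation.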

huWISP-3 = target: T2, huWISP-3; assay: ELISA, coated CCN protein
In short: as §1

[1] = target: T3, recombinant human CTGF protein (R&D …); assay: ELISA, coated target
[2] = target: T5, muCTGF domains 1 and 2 with human Fc tag (murine); assay: ELISA, coated target
T5 construct: Made by Evitria; also called Murine CTGF1-2-huFc
T5 sequence (chain, as listed by the source limits assumed): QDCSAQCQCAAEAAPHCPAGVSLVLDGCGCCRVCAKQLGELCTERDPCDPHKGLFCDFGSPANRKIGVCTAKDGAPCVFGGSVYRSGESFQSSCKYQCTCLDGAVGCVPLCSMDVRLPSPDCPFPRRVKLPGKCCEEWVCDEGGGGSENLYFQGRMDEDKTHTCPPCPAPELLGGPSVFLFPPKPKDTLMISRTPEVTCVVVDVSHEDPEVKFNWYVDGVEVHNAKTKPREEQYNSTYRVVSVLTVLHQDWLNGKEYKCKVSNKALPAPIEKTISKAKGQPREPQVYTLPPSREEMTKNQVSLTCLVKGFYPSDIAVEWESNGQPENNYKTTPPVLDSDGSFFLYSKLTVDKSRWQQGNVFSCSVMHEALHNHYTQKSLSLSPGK

[3] = target: T6, huCTGF domains 1 and 2 with human Fc tag (human); assay: ELISA, coated target
T6 construct: Made by Evitria; also called Human CTGF1-2-huFc

[4] = target: T7, murine CTGF (Biozol, SEQ ID NO: 80) (murine); assay: ELISA, coated target
T7 construct: Bought; also called muCTGF

[5] = target: T4, recombinant rat CTGF protein (R&D …); assay: ELISA, coated target

Binder	binding result (huWISP-2)	binding result (huWISP-3)	EC50 [1]	EC50 [2]	EC50 [3]	binding result [4]	EC50 [5]	EC50 [4]	binding result [2]	binding result [3]
lipocalin mutein of SEQ ID NO: 15 (designed binder, also called hNGAL mutein; not shown: C-terminal His-tag) QDSTSDLIPAPPLSKVPLQQNFQDNQFQGKWYVVGLAGNAILREDKQPAKMFATIYELKEDKSYDVTSVRFEAKSCKYTIKTFVPGSQPGEFTAGYIKSAPGQTSTLVRVVSTNYNQHAMVFFKHVTQNREIFVITLYGRTKELTSELKENFIRFSKSLGLPENHIVFPVPIDQCIDG	no binding (tested: dilutions starting at 1000 nM)	no binding (tested: dilutions starting at 1000 nM)	–	–	–	–	–	–	–	–
lipocalin mutein of SEQ ID NO: 25 (designed binder, Parent hNGAL mutein; also called hNGAL mutein) QDSTSDLIPAPPLSKVPLQQNFQDNQFHGKWYVVGMAGNFRLREDKDPSKMGATIYELKEDKSYNVTQVQFDDKKCLYVIETFVPGSQPGEFTLGAIKSFPGFTSQLVRVVSTNYNQHAMVFFKKVYQNREVFWITLYGRTKELTSELKENFIRFSKSLGLPENHIVFPVPIDQCIDGSAWSHPQFEK	no binding (tested: dilutions starting at 1000 nM)	no binding (tested: dilutions starting at 1000 nM)	0.011 µM	0.014 µM	0.0088 µM	no binding (tested: dilutions starting at 1000 nM)	0.023 µM	–	–	–
lipocalin mutein of SEQ ID NO: 9 (designed binder, Parent hNGAL mutein; also called hNGAL mutein) QDSTSDLIPAPPLSKVPLQQNFQDNQFHGKWYVVGLAGNKILRIDKQPAKMFATIYELKEDKSYDVTSVRFEARSCSYTIKTFVPGSQPGEFTAGNIKSAPGQTSTLVRVVSTNYNQHAMVFFKHVSQNRETFVITLYGRTKELTSELKENFIRFSKSLGLPENHIVFPVPIDQCIDGSAWSHPQFEK	no binding (tested: dilutions starting at 1000 nM)	no binding (tested: dilutions starting at 1000 nM)	0.014 µM	0.0058 µM	0.008 µM	–	0.03 µM	0.011 µM	–	–
lipocalin mutein of SEQ ID NO: 7 (designed binder, Parent hNGAL mutein; also called hNGAL mutein) QDSTSDLIPAPPLSKVPLQQNFQDNQFHGKWYVVGLAGNYGLRTDKRPSKMFATIYELKEDKSYDVTSVRFEQERCHYTIRTFVPGSQPGEFTTGSIKSRPGQTSSLVRVVSTNYNQHAMVFFKSVIQNREYFAITLYGRTKELTSELKENFIRFSKSLGLPENHIVFPVPIDQCIDGSAWSHPQFEK	no binding (tested: dilutions starting at 1000 nM)	no binding (tested: dilutions starting at 1000 nM)	0.034 µM	0.014 µM	0.017 µM	–	0.041 µM	0.029 µM	–	–
lipocalin mutein of SEQ ID NO: 29 (designed binder, Parent hNGAL mutein; also called hNGAL mutein) QDSTSDLIPAPPLSKVPLQQNFQDNQFHGKWYVVGWAGNIKLREDKDPFKMSATIYELKEDKSYNVTEVVFEQKKCHYIIKTFVPGSQPGEFTLGDIKSPPGETSSLVRVVSTNYNQHAMVFFKKVFQNREFFWITLYGRTKELTSELKENFIRFSKSLGLPENHIVFPVPIDQCIDGSAWSHPQFEK	no binding (tested: dilutions starting at 1000 nM)	no binding (tested: dilutions starting at 1000 nM)	0.011 µM	0.017 µM	0.0084 µM	no binding (tested: dilutions starting at 1000 nM)	0.02 µM	–	–	–
lipocalin mutein of SEQ ID NO: 3 (designed binder, Parent hNGAL mutein; also called hNGAL mutein) QDSTSDLIPAPPLSKVPLQQNFQDNQFHGKWYVVGRAGNNRLREDKDPPKMWATIYELKEDKSYNVTHVHFMTKKCRYIIDTFVPGSQPGEFTLGAIKSGPGMTSPLVRIVSTNYNQHAMVFFKWVNQNREWFTITLYGRTKELTSELKENFIRFSKSLGLPENHIVFPVPIDQCIDGSAWSHPQFEK	no binding (tested: dilutions starting at 1000 nM)	no binding (tested: dilutions starting at 1000 nM)	0.0069 µM	–	–	–	–	–	no binding (tested: dilutions starting at 1000 nM)	no binding (tested: dilutions starting at 1000 nM)
